From US20200289603A1 (ELIXIRON IMMUNOTHERAPEUTICS HONG KONG, published 2020) come the findings set out here.

Assay [1] concerns the target recombinant human IFNγ protein (R&D systems, 285-IF-100) (human) (UniProt P01579). In words: BLI (ForteBio Octet RED96); summary sentence to Table 10.
For assay [2] the target is unchanged. In words: BLI (ForteBio Octet RED96); antibody captured on AHC anti-hIgG Fc biosensor, recombinant human IFNγ in solution; 1:1 Langmuir fit.
The target of assay [3] is T1, recombinant human IFNγ protein (R&D systems, 285-IF-100) (human, UniProt P01579 24-166).
T1 sequence: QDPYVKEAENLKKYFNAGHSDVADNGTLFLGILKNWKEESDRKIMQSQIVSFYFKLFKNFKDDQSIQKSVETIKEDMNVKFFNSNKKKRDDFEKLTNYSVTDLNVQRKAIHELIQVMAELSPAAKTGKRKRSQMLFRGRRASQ
In words: cell-based or functional assay.

In assay [4] the target is T2, BSA (UniProt P02769 25-607).
T2 construct: also called bovine serum albumin
In words: ELISA on plate coated with BSA (2 µg/mL).

For assay [5], the target named is T1, recombinant human IFNγ protein (R&D …). In words: BLI (ForteBio Octet RED96); summary sentence to Table 9.
Assay [6] has the same target. The experiment in a line: BLI (ForteBio Octet RED96); summary sentence to Table 10.

T2 sequence (P02769 25-607 limits assumed): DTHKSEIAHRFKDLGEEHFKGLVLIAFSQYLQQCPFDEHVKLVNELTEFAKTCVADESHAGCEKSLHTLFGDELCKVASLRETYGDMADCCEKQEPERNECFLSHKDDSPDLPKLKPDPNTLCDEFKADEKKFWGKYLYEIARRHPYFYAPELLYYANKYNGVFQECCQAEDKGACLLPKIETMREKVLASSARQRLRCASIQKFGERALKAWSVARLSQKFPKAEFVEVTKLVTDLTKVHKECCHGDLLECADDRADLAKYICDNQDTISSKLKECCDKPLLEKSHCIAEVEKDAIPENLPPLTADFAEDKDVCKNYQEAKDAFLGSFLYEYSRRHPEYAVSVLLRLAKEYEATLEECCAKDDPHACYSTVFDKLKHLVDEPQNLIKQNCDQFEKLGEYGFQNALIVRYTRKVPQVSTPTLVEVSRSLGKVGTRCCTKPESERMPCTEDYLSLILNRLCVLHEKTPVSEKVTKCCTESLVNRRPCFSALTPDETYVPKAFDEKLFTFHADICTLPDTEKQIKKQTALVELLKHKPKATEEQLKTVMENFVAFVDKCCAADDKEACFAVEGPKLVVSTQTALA

Turning to AMG811 (antibody), the dissociation constant Kd in assay [1] is less than 0.1 nM.

B1: 2F2 (antibody, from a related filing, V domains shown)
VH: EVQLVESGGGLVKPGESLRLACVASGFNFSDYYMTWIRQAPGKGLEWVSYISNSGSHTYYADAVKGRFTVSRDNAKNSLYLQMTSLRGEDTAIYFCARDPSIMRGTYYMDVWGKGTTVTVSS
VL: QSVLTQPPSASGTPGQRVTISCSGSSSNIGTNPVSWYQQFPGMAPKLLIYFNNQRPSGVPERFSGSKSGTPASLAIGGLQSEDEANYYCASWDDTLNGLVFGGGTKLTVL
Regarding B1, in assay [2], the dissociation constant (Kd) turned out to be 0.317 nM, the koff was 0.000109 s⁻¹ and the kon was 344000 M⁻¹ s⁻¹.

B2: 2A6 (antibody, human IgG1, lambda, V domains shown)
VH: EVQLVESGGGLVKPGDSLTVSCVASGFTFSNYFIHWVRQAPGKGLEWVATISGRTKYMFYSDSLRGRFTVSRDNANNSVYLHMSSLRGEDTALYYCVRGYDHSDSNSAADLLHWGRGTLVTVSS
VL: NFMLTQPLSVSGYPGKTIVISCVRSSGSVASHYVQWFQQRPGSAPAMVIYEDSHRPSGIPDRFSGSVDASSNSASLTISGLKTEDEADYFCQSYYGNNQVLFGGGTKLTVLG
modifications: partial N-linked glycosylation at position 76 of the VH region
notes: Human IgG1 lambda, cloned from a single patient B cell and expressed in FreeStyle 293-F cells; also called 2A6 anti-IFNγ mAb
B2: the “inhibition of HLA-DR expression on THP-1 cells stimulated with 2 ng/mL recombinant human IFN-γ, IC50” value in assay [3] stood at 3.4 ng/mL. The binding result in assay [4] was “no binding (tested: 1 µg/mL and 0.1 µg/mL)”. The equilibrium dissociation constant (Kd) in assay [5] is less than 0.1 nM.

B3: AB (antibody, V domains shown)
VH: B2 VH
VL: NFMLTQPHSVSESPGKTITISCTRGRGYIASYYVQWYQQRPGGVPKIVVFEDTQRPSGVPDRISGSIDTSTNSASLTISGLQTEDEADYYCQSYDDANHVIFGGGTKLTVLG
Take B3: in assay [4], the binding result was “no binding (tested: 1 µg/mL and 0.1 µg/mL)”. Besides, the Kd in assay [6] was less than 0.1 nM.

B4: 2B6 (antibody, human IgG1, lambda, V domains shown)
VH: EVQLVESGGGLVKPGGSLRLSCAASGFPFSRYSMHWVRQAPGKGLEWVSSMTSRTNHKYYADSLKGRFLISRDNDRDSLYLEMNSLGVEDTAIYFCARGYDTSGSDSGVDFQYWGQGTLVTVSS
VL: B3 VL
notes: Human IgG1 lambda; also called 2B6 anti-IFNγ mAb
For the molecule B4, the “inhibition of HLA-DR expression on THP-1 cells stimulated with 2 ng/mL recombinant human IFN-γ, IC50” value in assay [3] was determined as 3.5 ng/mL. Also, the binding result in assay [4] was “no binding (tested: 1 µg/mL and 0.1 µg/mL)”. Besides, in assay [5], the Kd is less than 0.1 nM.

B5: BA (antibody, V domains shown)
VH: B4 VH
VL: NFMLTQPLSVSGYPGKTIVISCVRSSGSVASHYVQWFQQRPGSAPAMVIYEDSHRPSGIPDRFSGSVDASSNSASLTISGLKTEDEADYFCQSYYGNNQVLFGGGTKLTVL
notes: Expressed from the same human IgG1 lambda vector as 2A6 and 2B6; also called antibody having the 2B6-VH and 2A6-VL
Turning to B5, the binding result in assay [4] is “no binding (tested: 1 µg/mL and 0.1 µg/mL)”.

B6: 1E8 (antibody, from a related filing, V domains shown)
VH: EVQLLESGGGLVQPGGPLRLSCAASGFTFSIYSMNWVRQAPGKGLEWVSSISGSGDNTYYADSVKGRFTITRDSSKNTLYLQMNTLRAEDTAVYFCAKSGRNIISPGFDSWGQGTLVTVSS
VL: QPVLTQPPSASASLGASVTLTCTLNSDYGDYKVDWYQQRPGKGPRFVMRVGTGGIVGSKGDGIPDRFSVLGSGLNRFLTIKNIQEEDESDYYCGADHGSANNFIWVFGGGTKLTVL
As to B6, in assay [2], the equilibrium dissociation constant (Kd) is 0.261 nM, the off-rate constant (koff) was 0.000121 s⁻¹ and the on-rate (kon) is 464000 M⁻¹ s⁻¹.
